Data as given in patent US20150337053A1.

What was measured:
[1] = target: human FcγRIIa (Example 1, allotype not stated) (human) (UniProt P12318); test: SPR (Biacore 3000), His-tagged receptor captured on anti-His IgG, antibody injected; steady state fit
human FcγRI (human) [2] = target: human FcγRI (human) (UniProt P12314); test: as above
[3] = target: human FcγRIIIa (Example 1) (human) (UniProt P08637); test: as above
human FcγRI (human) [4] = target: human FcγRI (human) (UniProt P12314); test: SPR (Biacore 3000), His-tagged receptor captured on anti-His IgG, antibody injected; 1:1 kinetic fit
[5] = target: human FcγRIIIa (Example 1) (human) (UniProt P08637); test: as above

Chain of human FcγRI (human) (P12314 16-288 limits assumed): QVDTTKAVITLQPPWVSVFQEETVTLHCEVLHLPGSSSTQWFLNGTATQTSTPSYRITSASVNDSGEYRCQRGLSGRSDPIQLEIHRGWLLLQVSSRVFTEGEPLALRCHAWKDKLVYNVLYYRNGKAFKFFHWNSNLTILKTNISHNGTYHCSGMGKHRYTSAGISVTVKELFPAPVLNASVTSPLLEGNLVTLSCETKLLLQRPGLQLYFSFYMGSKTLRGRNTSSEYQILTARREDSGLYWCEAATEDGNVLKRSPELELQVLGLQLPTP
Chain of human FcγRIIIa (Example 1) (human) (P08637 17-208 F176V limits assumed): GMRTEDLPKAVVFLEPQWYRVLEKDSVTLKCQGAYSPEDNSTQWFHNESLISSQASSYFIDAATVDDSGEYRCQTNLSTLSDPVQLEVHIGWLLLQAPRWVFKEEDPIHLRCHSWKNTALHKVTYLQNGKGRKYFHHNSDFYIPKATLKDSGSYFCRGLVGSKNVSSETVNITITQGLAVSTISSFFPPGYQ
Chain of human FcγRIIa (Example 1, allotype not stated) (human) (P12318 36-218 limits assumed): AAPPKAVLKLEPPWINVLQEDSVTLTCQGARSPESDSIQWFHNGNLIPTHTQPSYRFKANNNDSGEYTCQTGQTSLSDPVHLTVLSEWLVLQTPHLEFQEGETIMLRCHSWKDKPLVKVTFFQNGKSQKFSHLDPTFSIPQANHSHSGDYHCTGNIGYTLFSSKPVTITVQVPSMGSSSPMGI

Row | Kd [1] [µM] | Kd (human FcγRI (human) [2]) [µM] | Kd [3] [µM] | Kd (human FcγRI (human) [4]) [µM] | Kd [5] [µM] | Substance
1 | 2.2 | 160 | 85 |  |  | huIgG2c4a (H268A, V309L, A330S, P331S) (antibody)
2 | 1 | 120 | 41 |  |  | huIgG2 (wild type human IgG2 isotype, anti-Her2/neu construct) (antibody)
3 | 150 | 15 | 55 |  |  | huIgG4 Ala-Ala, Ser-Pro (S228P, F234A, L235A) (antibody)
4 | > 170 | > 210 | > 95 |  |  | huIgG2c4d (V234A, G237A, P238S, H268A, V309L, A330S, P331S) (antibody)
5 | 19 |  |  | 0.044 | 0.64 | huIgG2c4c (V234A, G237A, H268A, V309L, A330S, P331S) (antibody)
6 | > 170 | > 210 | > 95 |  |  | huIgG2c4e (P233S, V234A, G237A, P238S, H268A, V309L, A330S, P331S) (antibody)
7 | > 170 | 3.7 | > 95 |  |  | huIgG1-Ag (aglycosylated IgG1, N297A) (antibody)
8 | 0.7 |  |  | 0.013 |  | huIgG1 (wild type human IgG1 isotype, anti-Her2/neu construct) (antibody)
9 | 170 | 38 | > 95 |  |  | huIgG2c4b (V234A, G237A, H268Q, V309L, A330S, P331S) (antibody)
10 | 2.7 | 210 | 95 |  |  | huIgG2m4 (H268Q, V309L, A330S, P331S) (antibody)
